Target: VEGFR-2

EC50 (read off the curve): 5 ng/mL
Substance: VEGF-A (from UniProt P15692 27-191) (ligand)
